71 molecules from patent US20250011363A1, “OPTIMIZED SHORTENED PEPTIDE THAT BINDS TO ACETYLCHOLINE RECEPTOR, AND USE THEREOF” (SKINMED CO., LTD., priority 2021, published 2025) can be followed below.

The experiment addresses acetylcholine receptor. As to the kind of experiment: SPR, AchR immobilized on CM5 chip, peptide at 10 uM. (In general: Surface plasmon resonance follows binding to a sensor surface in real time, without labels.)

B1: 6mer-1-863 (peptide)
peptide: RRCTER
Regarding B1, the Binding affinity (RU) came to 27 RU.

B2: 6mer-1-855 (peptide)
peptide: RKCDVR
B2 returned a Binding affinity (RU) of 15 RU.

B3: 6mer-2-351 (peptide)
peptide: KLYTKR
B3: the Binding affinity (RU) was found to be 135 RU.

B4: 6mer-2-356 (peptide)
peptide: RLLQRR
For B4, the Binding affinity (RU) amounted to 145 RU.

B5: 6mer-2-359 (peptide)
peptide: RLFCKK
B5 displayed a Binding affinity (RU) of 136 RU.

B6: 6mer-2-335 (peptide)
peptide: KWRSRR
In turn, B6 gave a Binding affinity (RU) of 153 RU.

B7: 6mer-1-861 (peptide)
peptide: KRINIR
On to B7, for which the Binding affinity (RU) was 21 RU.

B8: 6mer-2-342 (peptide)
peptide: KRYRKK
Molecule B8 displayed a Binding affinity (RU) of 145 RU.

B9: 6mer-2-372 (peptide)
peptide: KLVQRR
Molecule B9 yielded a Binding affinity (RU) of 141 RU.

B10: 6mer-2-366 (peptide)
peptide: KQYYRR
B10 had a Binding affinity (RU) of 142 RU.

B11: 6mer-2-369 (peptide)
peptide: KVVRRR
In turn, B11 registered a Binding affinity (RU) of 145 RU.

B12: 6mer-2-343 (peptide)
peptide: KQISKK
B12 gave a Binding affinity (RU) of 146 RU.

B13: 6mer-2-368 (peptide)
peptide: RLRTRR
B13 came in with a Binding affinity (RU) of 142 RU.

B14: 6mer-2-352 (peptide)
peptide: RWFYRR
B14 registered a Binding affinity (RU) of 137 RU.

B15: 6mer-2-345 (peptide)
peptide: KSRQKK
The molecule B15 returned a Binding affinity (RU) of 148 RU.

B16: 6mer-1-851 (peptide)
peptide: RRYMEK
B16 had a Binding affinity (RU) of 30 RU.

B17: 6mer-1-856 (peptide)
peptide: KRMWFK
Consider B17, for which the Binding affinity (RU) turned out to be 30 RU.

B18: 6mer-2-344 (peptide)
peptide: KGIRRK
Turning to B18, the Binding affinity (RU) turned out to be 148 RU.

B19: 6mer-2-374 (peptide)
peptide: KRQLKK
The molecule B19 returned a Binding affinity (RU) of 125 RU.

B20: 6mer-2-363 (peptide)
peptide: KSIYRK
With B20, the Binding affinity (RU) is 147 RU.

B21: 6mer-2-386 (peptide)
peptide: KWQSKR
With B21, the Binding affinity (RU) is 136 RU.

B22: 6mer-2-362 (peptide)
peptide: RGRQKR
In the case of B22, the Binding affinity (RU) was 154 RU.

B23: 6mer-2-385 (peptide)
peptide: RGVCKR
B23 returned a Binding affinity (RU) of 154 RU.

B24: 6mer-1-857 (peptide)
peptide: KRPAFK
Regarding B24, the Binding affinity (RU) was 14 RU.

B25: 6mer-2-348 (peptide)
peptide: KSQLRR
For B25, the Binding affinity (RU) is 153 RU.

B26: 6mer-1-853 (peptide)
peptide: KRCNGR
As for B26, the Binding affinity (RU) is 30 RU.

B27: 6mer-1-865 (peptide)
peptide: KKMTAR
In turn, B27 showed a Binding affinity (RU) of 21 RU.

B28: 6mer-2-341 (peptide)
peptide: KVVTKR
Consider B28, for which the Binding affinity (RU) is 144 RU.

B29: 6mer-2-373 (peptide)
peptide: KLIYRK
Consider B29, for which the Binding affinity (RU) is 139 RU.

B30: 6mer-2-353 (peptide)
peptide: RLQTKK
Consider B30, for which the Binding affinity (RU) came to 137 RU.

B31: 6mer-2-383 (peptide)
peptide: KLVRRK
In turn, B31 registered a Binding affinity (RU) of 128 RU.

B32: 6mer-2-337 (peptide)
peptide: KQFQKK
In turn, B32 returned a Binding affinity (RU) of 142 RU.

B33: 6mer-2-350 (peptide)
peptide: RGQTRK
Molecule B33 registered a Binding affinity (RU) of 148 RU.

B34: 6mer-1-850 (peptide)
peptide: RRNPEK
In turn, B34 showed a Binding affinity (RU) of 29 RU.

B35: 6mer-2-355 (peptide)
peptide: RGIRKK
The molecule B35 gave a Binding affinity (RU) of 124 RU.

B36: 6mer-1-852 (peptide)
peptide: KRASVK
With B36, the Binding affinity (RU) came out at 19 RU.

B37: 6mer-1-859 (peptide)
peptide: RKCMVK
Turning to B37, the Binding affinity (RU) worked out at 27 RU.

B38: 6mer-2-357 (peptide)
peptide: RGQRKK
Turning to B38, the Binding affinity (RU) was found to be 151 RU.

B39: 6mer-2-370 (peptide)
peptide: KSLLRR
For B39, the Binding affinity (RU) was 142 RU.

B40: 6mer-1-862 (peptide)
peptide: KKHSEK
Turning to B40, the Binding affinity (RU) came out at 32 RU.

B41: 6mer-2-384 (peptide)
peptide: RSFQKK
On to B41, for which the Binding affinity (RU) came out at 142 RU.

B42: 6mer-2-380 (peptide)
peptide: RLVYRK
Turning to B42, the Binding affinity (RU) stood at 141 RU.

B43: 6mer-1-847 (peptide)
peptide: KKYNHK
B43: the Binding affinity (RU) came to 20 RU.

B44: 6mer-1-858 (peptide)
peptide: KKKHKR
Consider B44, for which the Binding affinity (RU) came out at 27 RU.

B45: 6mer-2-360 (peptide)
peptide: KGVRRR
Regarding B45, the Binding affinity (RU) worked out at 141 RU.

B46: 6mer-1-860 (peptide)
peptide: RKHWWR
As for B46, the Binding affinity (RU) stood at 22 RU.

B47: 6mer-2-340 (peptide)
peptide: RRLTRR
In turn, B47 displayed a Binding affinity (RU) of 122 RU.

B48: 6mer-1-849 (peptide)
peptide: KKFNWK
As to B48, the Binding affinity (RU) was 21 RU.

B49: 6mer-2-377 (peptide)
peptide: RRYCRR
In turn, B49 yielded a Binding affinity (RU) of 142 RU.

B50: 6mer-2-361 (peptide)
peptide: RSFQRR
B50: the Binding affinity (RU) was 153 RU.

B51: 6mer-2-365 (peptide)
peptide: RWRYRR
B51 displayed a Binding affinity (RU) of 121 RU.

B52: 6mer-2-379 (peptide)
peptide: RGVQKR
For the molecule B52, the Binding affinity (RU) turned out to be 127 RU.

B53: 6mer-2-347 (peptide)
peptide: RRYSKK
Consider B53, for which the Binding affinity (RU) turned out to be 148 RU.

B54: 6mer-2-375 (peptide)
peptide: RVVQKK
In turn, B54 gave a Binding affinity (RU) of 131 RU.

B55: 6mer-2-364 (peptide)
peptide: KVFTKK
The molecule B55 returned a Binding affinity (RU) of 154 RU.

B56: 6mer-2-358 (peptide)
peptide: RQIYKK
B56 registered a Binding affinity (RU) of 154 RU.

B57: 6mer-2-378 (peptide)
peptide: KRFQRK
The molecule B57 yielded a Binding affinity (RU) of 131 RU.

B58: 6mer-2-381 (peptide)
peptide: KVYRRR
Consider B58, for which the Binding affinity (RU) was 139 RU.

B59: 6mer-2-354 (peptide)
peptide: RWISKK
Regarding B59, the Binding affinity (RU) amounted to 135 RU.

B60: 6mer-2-367 (peptide)
peptide: RWRSRR
As to B60, the Binding affinity (RU) turned out to be 142 RU.

B61: 6mer-2-376 (peptide)
peptide: KQQCKR
Molecule B61 showed a Binding affinity (RU) of 141 RU.

B62: 6mer-1-854 (peptide)
peptide: KKEAVR
Regarding B62, the Binding affinity (RU) worked out at 16 RU.

B63: 6mer-2-336 (peptide)
peptide: KLITKR
B63 displayed a Binding affinity (RU) of 135 RU.

B64: 6mer-1-848 (peptide)
peptide: RKTMFK
B64 returned a Binding affinity (RU) of 19 RU.

B65: 6mer-2-371 (peptide)
peptide: KRLSRR
With B65, the Binding affinity (RU) came out at 148 RU.

B66: 6mer-2-339 (peptide)
peptide: KQVYKK
For the molecule B66, the Binding affinity (RU) is 151 RU.

B67: 6mer-2-338 (peptide)
peptide: RSVQKR
For the molecule B67, the Binding affinity (RU) is 145 RU.

B68: 6mer-2-382 (peptide)
peptide: KSVSRR
B68 registered a Binding affinity (RU) of 148 RU.

B69: 6mer-2-346 (peptide)
peptide: KRFSKK
In the case of B69, the Binding affinity (RU) is 153 RU.

B70: 6mer-2-349 (peptide)
peptide: RRLSRR
B70 registered a Binding affinity (RU) of 137 RU.

B71: 6mer-1-864 (peptide)
peptide: RRTWGR
B71 had a Binding affinity (RU) of 32 RU.
